Patent US20130034559A1 (AstraZeneca / MedImmune, published 2013)

What was measured:
B7H1_R113L = target: T1, B7H1_R113L (human, UniProt Q9NZQ7 19-238); test: HTRF competition: untagged B7-H1 sample against HIS FLAG tagged human B7-H1 for labelled antibody
T1 construct: range 19-238; also called human B7-H1 extracellular domain mutant R113L
Protocol: (§1) The HTRF® competition assays measured the binding of anti-B7-H1 antibody to HIS FLAG tagged B7-H1. Titration of non tagged B7-H1 samples, prepared as described above, will compete with HIS FLAG tagged B7-H1 for binding to anti-B7-H1 antibody, leading to a reduction in assay signal. […] 10 μl of B7-H1 sample was added to a 384 well low volume assay plate (Corning 3673). […] Assay plates were incubated for 4 hours at room temperature prior to reading time resolved fluorescence at 620 nm and 665 nm emission wavelengths using an EnVision plate reader (Perkin Elmer).

B7H1_F19G = target: T2, B7H1_F19G (human, UniProt Q9NZQ7 19-238); test: as above
T2 construct: range 19-238; also called human B7-H1 extracellular domain mutant F19G
T2 sequence (Q9NZQ7 19-238 F19G limits assumed): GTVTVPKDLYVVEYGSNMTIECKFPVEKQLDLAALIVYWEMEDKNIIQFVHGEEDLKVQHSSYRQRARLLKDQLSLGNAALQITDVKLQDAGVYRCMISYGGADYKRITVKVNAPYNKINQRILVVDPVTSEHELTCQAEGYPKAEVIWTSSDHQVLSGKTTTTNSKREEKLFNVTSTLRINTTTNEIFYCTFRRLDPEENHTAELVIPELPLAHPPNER
Protocol: as §1

B7H1_T20V = target: T3, B7H1_T20V (human, UniProt Q9NZQ7 19-238); test: as above
T3 construct: range 19-238; also called human B7-H1 extracellular domain mutant T20V
T3 sequence (Q9NZQ7 19-238 T20V limits assumed): as the sequence (Q9NZQ7 19-238 F19G limits assumed) above, with G1F, T2V counted along it
Protocol: as §1

B7H1_D122N = target: T4, B7H1_D122N (human, UniProt Q9NZQ7 19-238); test: as above
T4 construct: range 19-238; also called human B7-H1 extracellular domain mutant D122N
T4 sequence (Q9NZQ7 19-238 D122N limits assumed): as the sequence (Q9NZQ7 19-238 F19G limits assumed) above, with G1F, D104N counted along it
Protocol: as §1

[1] = target: T5, human PD-1/Fc protein (R&D Systems, catalog #1086-PD) (human, UniProt Q15116 25-170); test: ELISA, biotinylated IgG1-TM on coated ECD
T5 construct: extracellular domain; Bought; not shown: Fc portion
T5 sequence (Q15116 25-170): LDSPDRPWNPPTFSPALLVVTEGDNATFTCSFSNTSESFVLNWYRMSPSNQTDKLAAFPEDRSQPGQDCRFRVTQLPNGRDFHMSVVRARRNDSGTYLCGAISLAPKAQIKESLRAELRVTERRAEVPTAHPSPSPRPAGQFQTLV
Protocol: (§2) ELISAs were performed to determine the cross-reactivity of the anti-B7-H1 IgG1-TM antibodies for other immune co-modulatory molecules. […] Murine cross reactivity was also investigated by coating the ECD of murine B7-H1 (R&D Systems, 1019-B7). Biotinylated anti-B7-H1 IgG1-TM diluted at 100 nM in PBS containing 3% dried milk powder, were incubated at room temperature for 2 h to allow binding. Bound biotinylated IgGs were detected with europium N1-labelled streptavidin (Perkin Elmer, 1244-360) at 0.2 ug/mL. […] Primary antibodies were incubated at 5 ug/mL in PBS containing 3% dried milk powder for 2 h at room temperature. Detection was carried out by incubating the secondary antibody anti-mouse IgG Peroxidase conjugate (Sigma, A2554) or anti-rat IgG Peroxidase conjugate (Sigma, A5795) diluted 1:5000 in PBS containing 3% dried milk powder for 1 h at room temperature and subsequent addition of TMB (Sigma, T0440). […] Non-specific binding was determined using wells coated with the IgG1 isotype control at 5 ug/mL. Cross reactivities were calculated at a percent of the specific binding to the antigen relative to human B7-H1.

[2] = target: T6, extracellular domain of human B7-H2 (R&D Systems, 165-B7) (human, UniProt O75144 19-256); test: ELISA, biotinylated IgG1-TM on coated ECD
T6 construct: extracellular domain; Bought
T6 sequence (looked up): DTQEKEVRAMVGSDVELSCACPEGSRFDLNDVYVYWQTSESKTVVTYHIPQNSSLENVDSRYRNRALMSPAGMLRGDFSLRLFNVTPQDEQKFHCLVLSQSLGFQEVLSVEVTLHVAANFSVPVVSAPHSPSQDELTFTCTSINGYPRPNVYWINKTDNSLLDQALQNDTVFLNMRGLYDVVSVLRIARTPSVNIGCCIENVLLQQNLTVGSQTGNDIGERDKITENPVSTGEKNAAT
Protocol: as §2

[3] = target: T7, extracellular domain of human CTLA-4 (R&D Systems, 325-CT) (human, UniProt P16410 36-161); test: ELISA, biotinylated IgG1-TM on coated ECD
T7 construct: extracellular domain; Bought
T7 sequence (looked up): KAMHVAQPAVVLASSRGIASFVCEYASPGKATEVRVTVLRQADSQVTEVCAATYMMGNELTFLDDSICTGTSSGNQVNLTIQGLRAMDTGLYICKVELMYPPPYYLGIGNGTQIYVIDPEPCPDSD
Protocol: as §2

[4] = target: T8, extracellular domain of human CD28 (R&D Systems, 342-CD) (human, UniProt P10747 19-152); test: ELISA, biotinylated IgG1-TM on coated ECD
T8 construct: extracellular domain; Bought
T8 sequence (P10747 19-152): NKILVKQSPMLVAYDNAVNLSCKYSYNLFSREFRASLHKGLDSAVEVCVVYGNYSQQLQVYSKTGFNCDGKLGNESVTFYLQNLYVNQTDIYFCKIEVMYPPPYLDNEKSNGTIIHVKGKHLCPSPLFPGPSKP
Protocol: as §2

[5] = target: T9, extracellular domain of human PD-L2 (R&D Systems, 1224-PL) (human, UniProt Q9BQ51 20-220); test: ELISA, biotinylated IgG1-TM on coated ECD
T9 construct: extracellular domain; Bought
T9 sequence (looked up): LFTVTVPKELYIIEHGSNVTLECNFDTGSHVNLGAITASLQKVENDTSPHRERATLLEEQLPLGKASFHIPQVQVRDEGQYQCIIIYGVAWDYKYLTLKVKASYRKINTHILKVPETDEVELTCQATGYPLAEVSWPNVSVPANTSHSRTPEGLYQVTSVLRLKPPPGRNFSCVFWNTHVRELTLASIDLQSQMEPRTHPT
Protocol: as §2

[6] = target: T10, recombinant monomeric human B7-H1 FlagHis10 extracellular domain (human, UniProt Q9NZQ7 19-238); test: SPR (BIAcore T100), IgG captured via protein G, monomeric B7-H1 ECD as analyte, 25 °C, 1:1 model
T10 construct: extracellular domain; also called HIS FLAG tagged human B7-H1; HIS FLAG tagged B7-H1; not shown: FlagHis10 tag
T10 sequence (Q9NZQ7 19-238): as the sequence (Q9NZQ7 19-238 F19G limits assumed) above, with G1F counted along it
Protocol: The binding affinity and kinetic parameters of anti-B7-H1 antibodies in the IgG1-TM format to monomeric human and cynomologus B7-H1 were determined by surface plasmon resonance using a BIAcore T100 instrument (BIAcore, Uppsala, Sweden). In brief, experiments were performed at 25° C. using HBS-EP buffer (10 mM HEPES, 150 mM NaCl, 3 mM EDTA, 0.05% v/v surfactant P20) as running buffer. IgGs were affinity captured on the surface of a CM5 sensor chip (BIAcore) via protein G, which was amine coupled onto the CM5 surface to achieve the density of ˜500 Response Units (RU), according to the manufacturer's instructions (BIAapplications Handbook, BIAcore). Recombinant monomeric human or cynomologus B7-H1 FlagHis₁₀ extracellular domains (ECDs) were used as analytes. […] All measurements were baseline corrected by subtracting the sensorgram obtained with the control (activated-deactivated) flow cell, as well as double referenced with blank (zero analyte concentration) injections. Data were analyzed using the T-100 BIAevaluation software package and fitted to a simple 1:1 Langmuir binding model with local Rₘₐₓ and bulk refractive index set to 0. Data were calculated from at least two independent experiments. Mass transport effects were limited by keeping the level of affinity-captured IgGs below 250 RU.

T1 sequence (Q9NZQ7 19-238 R113L limits assumed): as the sequence (Q9NZQ7 19-238 F19G limits assumed) above, with G1F, R95L counted along it

binding result (B7H1_R113L): no binding | binding result (B7H1_F19G): no binding | binding result (B7H1_T20V): no binding | binding result (B7H1_D122N): no binding | binding result [1]: no binding (tested: 100 nM) | binding result [2]: no binding (tested: 100 nM) | binding result [3]: no binding (tested: 100 nM) | binding result [4]: no binding (tested: 100 nM) | binding result [5]: no binding (tested: 100 nM) | Kd [6]: 1 nM | koff [6]: 0.0012 s⁻¹ | kon [6]: 1.24e+06 M⁻¹ s⁻¹
B1: 2.7A4OPT (antibody, V domains shown)
VH: EVQLVESGGGLVKPGGSLRLSCAASGFTFSTYSMNWVRQAPGKGLEWVSSISSSGDYIYYADSVKGRFTISRDNAKNSLYLQMNSLRAEDTAVYYCARDLVTSMVAFDYWGQGTLVTVSS
VL: SYELTQPPSVSVSPGQTARITCSGDALPQKYVFWYQQKSGQAPVLVIYEDSKRPSGIPERFSGSSSGTMATLTISGAQVEDEADYYCYSTDRSGNHRVFGGGTKLTVL
notes: Germlined variable domains; human IgG1-TM (L234F, L235E, P331S), lambda; also called 2.7A4OPT IgG1-TM
